Source: patent US20200317768A1 (published 2020)
Changes are numbered by the printed parent chain. Names may count otherwise.

T1: human FcγRIIb extracellular domain, C-terminal His-tag (human, UniProt P31994 43-217)
T1 construct: also called FcgRIIb (human)
T1 sequence: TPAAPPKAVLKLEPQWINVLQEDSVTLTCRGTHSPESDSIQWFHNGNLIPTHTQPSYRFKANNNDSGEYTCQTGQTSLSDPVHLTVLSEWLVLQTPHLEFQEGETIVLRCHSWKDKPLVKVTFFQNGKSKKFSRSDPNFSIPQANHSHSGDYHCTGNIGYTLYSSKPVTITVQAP

T2: human FcγRIIaH extracellular domain, C-terminal His-tag (human, UniProt P12318 34-217)
T2 construct: also called human FcγRIIa (type H); FcgRIIaH
T2 sequence: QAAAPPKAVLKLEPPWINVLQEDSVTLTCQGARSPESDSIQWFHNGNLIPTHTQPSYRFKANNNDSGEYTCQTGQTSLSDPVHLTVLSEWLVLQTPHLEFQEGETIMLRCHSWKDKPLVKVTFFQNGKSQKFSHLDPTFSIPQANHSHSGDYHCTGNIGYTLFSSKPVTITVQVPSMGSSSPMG

T3: human FcγRIIaR extracellular domain, C-terminal His-tag (human, UniProt P12318 34-217)
T3 construct: also called human FcγRIIa (type R); FcgRIIaR
T3 chain: T2 sequence with H134R

T4: cynomolgus monkey FcγRIIa2 extracellular domain, C-terminal His-tag (cynomolgus monkey)
T4 construct: also called cyno FcγRIIa2; cynoFcgRIIa2
T4 chain: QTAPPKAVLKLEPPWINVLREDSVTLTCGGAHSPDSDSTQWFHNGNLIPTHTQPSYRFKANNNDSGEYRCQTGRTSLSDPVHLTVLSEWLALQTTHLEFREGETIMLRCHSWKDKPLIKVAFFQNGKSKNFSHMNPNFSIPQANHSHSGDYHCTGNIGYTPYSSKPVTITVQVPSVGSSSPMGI

T5: cynomolgus monkey FcγRIIIaS extracellular domain, C-terminal His-tag (cynomolgus monkey, UniProt Q8SPW2 21-206 at identity 1.00))
T5 construct: also called cyno FcγRIIIaS; cynoFcγRIIIaS
T5 chain: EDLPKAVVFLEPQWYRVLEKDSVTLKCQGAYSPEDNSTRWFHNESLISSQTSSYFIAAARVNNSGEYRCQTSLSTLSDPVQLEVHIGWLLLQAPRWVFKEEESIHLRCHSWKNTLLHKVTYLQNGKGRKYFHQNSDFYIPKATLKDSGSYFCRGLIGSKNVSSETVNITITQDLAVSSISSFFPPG

T6: cynomolgus monkey FcγRIIb extracellular domain, C-terminal His-tag (cynomolgus monkey)
T6 construct: also called cyno FcγRIIb; cynoFcγRIIb
T6 chain: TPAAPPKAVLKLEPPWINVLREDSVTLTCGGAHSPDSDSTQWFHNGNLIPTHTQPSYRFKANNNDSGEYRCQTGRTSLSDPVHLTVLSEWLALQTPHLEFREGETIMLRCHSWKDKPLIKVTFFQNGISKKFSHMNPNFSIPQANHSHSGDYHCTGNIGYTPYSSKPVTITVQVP

T7: cynomolgus monkey FcγRIIa3 extracellular domain, C-terminal His-tag (cynomolgus monkey)
T7 construct: also called cyno FcγRIIa3; cynoFcgRIIa3
T7 chain: T4 chain with K127I, N130K, H133P, Q142R

T8: human FcγRIIb extracellular domain, C-terminal His-tag (human, UniProt P31994 43-217)
T8 construct: also called human FcgRIIb; FcgRIIb
T8 sequence: T1 sequence

T9: cynomolgus monkey FcγRIIa1 extracellular domain, C-terminal His-tag (cynomolgus monkey)
T9 construct: also called cyno FcγRIIa1; cynoFcgRIIa1
T9 chain: T4 chain with T95P, A121T, K127I, S128A, N130K, N135D, Q142R

T10: human FcγRIIaH extracellular domain, C-terminal His-tag (human, UniProt P12318 34-217)
T10 construct: also called human FcγRIIa (type H); FcgRIIaH
T10 sequence: T2 sequence

T11: human FcγRIIaR extracellular domain, C-terminal His-tag (human, UniProt P12318 34-217)
T11 construct: also called human FcγRIIa (type R); FcgRIIaR
T11 chain: T2 sequence with H134R

B1: GpH7-B3 variant Q295L/GpL16-k0 (antibody, human IgG1, kappa)
heavy: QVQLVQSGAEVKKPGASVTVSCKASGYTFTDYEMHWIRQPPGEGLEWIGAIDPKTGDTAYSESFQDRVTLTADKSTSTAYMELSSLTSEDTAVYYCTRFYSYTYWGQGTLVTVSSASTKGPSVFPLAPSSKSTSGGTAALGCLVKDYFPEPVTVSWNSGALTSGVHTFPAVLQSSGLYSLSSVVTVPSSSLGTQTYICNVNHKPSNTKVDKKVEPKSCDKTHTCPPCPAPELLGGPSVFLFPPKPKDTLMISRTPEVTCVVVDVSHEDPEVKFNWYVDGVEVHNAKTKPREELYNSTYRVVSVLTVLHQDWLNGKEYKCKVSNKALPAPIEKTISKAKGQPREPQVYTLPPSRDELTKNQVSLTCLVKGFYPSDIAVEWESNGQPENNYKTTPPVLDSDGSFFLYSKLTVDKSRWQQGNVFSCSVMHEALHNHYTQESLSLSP
light: DIVMTQSPLSLPVTPGEPASISCQASESLVHSNRNTYLHWYLQKPGQSPQLLIYKVSNRFSGVPDRFSGSGSGTDFTLKISRVEAEDVGVYYCSQNTHVPPTFGQGTKVEIERTVAAPSVFIFPPSDEQLKSGTASVVCLLNNFYPREAKVQWKVDNALQSGNSQESVTEQDSKDSTYSLSSTLTLSKADYEKHKVYACEVTHQGLSSPVTKSFNRGEC
B2: GpH7-B3 variant S239I/GpL16-k0 (antibody, human IgG1, kappa)
heavy: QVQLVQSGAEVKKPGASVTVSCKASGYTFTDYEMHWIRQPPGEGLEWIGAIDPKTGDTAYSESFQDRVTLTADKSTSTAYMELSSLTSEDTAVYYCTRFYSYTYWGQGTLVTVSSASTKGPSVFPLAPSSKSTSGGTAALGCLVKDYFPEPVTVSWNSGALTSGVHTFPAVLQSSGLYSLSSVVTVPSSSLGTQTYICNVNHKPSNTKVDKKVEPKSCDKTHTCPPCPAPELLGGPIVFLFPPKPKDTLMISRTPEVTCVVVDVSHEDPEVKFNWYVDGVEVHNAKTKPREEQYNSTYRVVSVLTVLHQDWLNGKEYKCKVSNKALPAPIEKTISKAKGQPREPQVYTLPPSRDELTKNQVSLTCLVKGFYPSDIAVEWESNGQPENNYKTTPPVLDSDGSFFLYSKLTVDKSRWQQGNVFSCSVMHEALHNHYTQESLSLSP
light: B1 light
B3: GpH7-B3 variant S267L/GpL16-k0 (antibody, human IgG1, kappa)
heavy: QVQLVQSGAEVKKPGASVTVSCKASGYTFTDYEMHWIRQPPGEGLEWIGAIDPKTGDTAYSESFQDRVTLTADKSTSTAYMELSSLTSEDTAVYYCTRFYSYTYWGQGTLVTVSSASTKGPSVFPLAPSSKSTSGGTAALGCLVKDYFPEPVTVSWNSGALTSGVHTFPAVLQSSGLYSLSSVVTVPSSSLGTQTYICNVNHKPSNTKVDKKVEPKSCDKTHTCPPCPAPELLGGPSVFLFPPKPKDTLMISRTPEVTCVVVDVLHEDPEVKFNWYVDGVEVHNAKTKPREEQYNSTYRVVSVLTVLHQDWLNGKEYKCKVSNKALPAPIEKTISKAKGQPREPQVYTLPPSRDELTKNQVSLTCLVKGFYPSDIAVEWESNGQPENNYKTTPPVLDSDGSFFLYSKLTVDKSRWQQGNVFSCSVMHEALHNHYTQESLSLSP
light: B1 light
B4: GpH7-B3 variant S267H/GpL16-k0 (antibody, human IgG1, kappa)
heavy: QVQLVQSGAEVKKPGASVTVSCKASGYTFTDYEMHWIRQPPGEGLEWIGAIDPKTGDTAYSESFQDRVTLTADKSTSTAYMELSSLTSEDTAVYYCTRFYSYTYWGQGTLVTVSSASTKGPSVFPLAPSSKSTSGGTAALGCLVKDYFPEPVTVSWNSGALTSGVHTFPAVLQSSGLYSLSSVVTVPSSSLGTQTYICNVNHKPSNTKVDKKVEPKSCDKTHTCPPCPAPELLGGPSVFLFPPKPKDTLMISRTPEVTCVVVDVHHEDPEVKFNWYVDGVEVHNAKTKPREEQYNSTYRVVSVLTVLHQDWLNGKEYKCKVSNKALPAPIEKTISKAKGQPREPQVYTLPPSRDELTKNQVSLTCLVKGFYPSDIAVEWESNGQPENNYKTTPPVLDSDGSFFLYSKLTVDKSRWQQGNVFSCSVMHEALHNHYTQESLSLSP
light: B1 light
B5: GpH7-B3 variant S239N/GpL16-k0 (antibody, human IgG1, kappa)
heavy: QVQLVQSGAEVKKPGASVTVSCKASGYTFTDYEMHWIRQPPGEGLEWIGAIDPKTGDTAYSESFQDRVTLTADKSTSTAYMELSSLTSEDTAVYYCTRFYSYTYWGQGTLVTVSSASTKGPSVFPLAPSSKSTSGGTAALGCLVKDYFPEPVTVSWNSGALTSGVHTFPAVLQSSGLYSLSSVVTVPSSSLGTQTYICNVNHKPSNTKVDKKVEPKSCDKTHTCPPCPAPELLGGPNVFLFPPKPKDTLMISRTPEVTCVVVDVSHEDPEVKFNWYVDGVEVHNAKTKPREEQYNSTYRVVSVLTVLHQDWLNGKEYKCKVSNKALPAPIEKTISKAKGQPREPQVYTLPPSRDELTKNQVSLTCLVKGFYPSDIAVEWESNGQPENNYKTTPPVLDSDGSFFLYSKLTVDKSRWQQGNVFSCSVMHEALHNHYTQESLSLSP
light: B1 light
B6: GpH7-B3 variant S298L/GpL16-k0 (antibody, human IgG1, kappa)
heavy: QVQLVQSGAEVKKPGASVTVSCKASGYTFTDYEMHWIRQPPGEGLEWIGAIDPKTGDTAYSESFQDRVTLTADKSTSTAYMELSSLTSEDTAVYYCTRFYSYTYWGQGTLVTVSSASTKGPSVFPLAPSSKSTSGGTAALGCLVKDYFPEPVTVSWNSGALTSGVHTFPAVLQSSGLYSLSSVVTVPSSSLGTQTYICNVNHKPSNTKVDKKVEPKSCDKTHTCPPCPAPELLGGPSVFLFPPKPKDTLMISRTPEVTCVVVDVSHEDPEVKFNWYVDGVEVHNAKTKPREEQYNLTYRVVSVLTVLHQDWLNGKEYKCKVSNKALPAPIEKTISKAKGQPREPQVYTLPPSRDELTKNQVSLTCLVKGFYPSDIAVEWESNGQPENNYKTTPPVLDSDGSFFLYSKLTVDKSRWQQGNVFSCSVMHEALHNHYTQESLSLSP
light: B1 light
B7: GpH7-B3 variant S239V/GpL16-k0 (antibody, human IgG1, kappa)
heavy: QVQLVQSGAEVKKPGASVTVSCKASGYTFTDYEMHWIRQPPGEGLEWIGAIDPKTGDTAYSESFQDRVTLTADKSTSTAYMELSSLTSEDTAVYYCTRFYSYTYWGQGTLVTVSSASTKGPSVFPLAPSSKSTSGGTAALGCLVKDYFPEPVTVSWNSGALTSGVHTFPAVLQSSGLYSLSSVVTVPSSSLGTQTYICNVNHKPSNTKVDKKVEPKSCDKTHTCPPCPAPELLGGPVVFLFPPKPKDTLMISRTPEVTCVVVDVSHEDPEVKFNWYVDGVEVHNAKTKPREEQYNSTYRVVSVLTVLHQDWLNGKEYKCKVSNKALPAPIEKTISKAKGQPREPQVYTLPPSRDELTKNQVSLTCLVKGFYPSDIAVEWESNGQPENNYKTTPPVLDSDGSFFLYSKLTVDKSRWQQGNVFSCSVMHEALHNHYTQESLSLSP
light: B1 light
B8: GpH7-B3 variant S267A/GpL16-k0 (antibody, human IgG1, kappa)
heavy: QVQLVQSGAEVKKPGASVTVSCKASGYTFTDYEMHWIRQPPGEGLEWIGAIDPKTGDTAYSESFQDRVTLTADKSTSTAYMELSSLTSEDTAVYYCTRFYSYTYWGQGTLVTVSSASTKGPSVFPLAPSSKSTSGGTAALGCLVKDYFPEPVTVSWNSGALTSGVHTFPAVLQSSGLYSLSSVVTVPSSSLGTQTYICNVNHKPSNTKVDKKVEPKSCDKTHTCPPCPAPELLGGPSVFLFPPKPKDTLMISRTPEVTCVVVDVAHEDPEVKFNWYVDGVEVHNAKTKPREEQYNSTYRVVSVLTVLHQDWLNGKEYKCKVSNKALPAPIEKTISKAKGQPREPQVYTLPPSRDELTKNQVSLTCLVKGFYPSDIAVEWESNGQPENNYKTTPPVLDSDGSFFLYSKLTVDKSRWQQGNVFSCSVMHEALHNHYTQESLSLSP
light: B1 light
B9: M103205H795-MY198/M103202L889-SK1 (antibody, human IgG1, kappa)
heavy: QVTLKESGPVLVKPTETLTLTCTVSGIDLSHDDISWVRQAPGKGLEWVGIISYAGSTYYASWAKGRLTISKDTSKNQVVLTMTNMDPVDTATYYCARGVPAYSHGGDLWGQGTLVTVSSASTKGPSVFPLAPSSKSTSGGTAALGCLVKDYFPEPVTVSWNSGALTSGVHTFPAVLQSSGLYSLSSVVTVPSSSLGTQTYICNVNHKPSNTKVDKKVEPKSCDKTHTCPPCPAPELLNGPVVFLFPPKPKDTLMISRTPEVTCVVVDVSDEDPEVKFNWYVDGVEVHNAKTKPREEQYNSTYRVVSVLTVLHQDWLNGKEYKCKVSNKALPKPIEKTISKAKGQPREPQVYTLPPSREEMTKNQVSLTCLVKGFYPSDIAVEWESNGQPENNYKTTPMVLDSDGSFFLYSKLTVDKSRWQQGNVFSCSVMHEALHNHYTQKSLSLSP
light: DIVMTQSPATLSLSPGERATLSCTSSQSVYHANWLSWFQQKPGQPPKLLIYWASTLAYGVPSRFSGSGSGTDFTLTISSLQPEDAATYYCAGGYGGGRYAFGQGTKVEIKRTVAAPSVFIFPPSDEQLKSGTASVVCLLNNFYPREAKVQWKVDNALQSGNSQESVTEQDSKDSTYSLSSTLTLSKADYEKHKVYACEVTHQGLSSPVTKSFNRGEC
notes: Substitutions introduced into M103205H795-SG1; expressed with M103202L889-SK1 as light chain
B10: M103205H795-MY201/M103202L889-SK1 (antibody, human IgG1, kappa)
heavy: B9 heavy with V241S, M398P
light: B9 light
notes: also called MS1032LO06-MY201
B11: M103205H795-MY200/M103202L889-SK1 (antibody, human IgG1, kappa)
heavy: B9 heavy with D270E, M398P
light: B9 light
notes: as for B9
B12: M103205H795-MY199/M103202L889-SK1 (antibody, human IgG1, kappa)
heavy: B9 heavy with V241S, D270E, M398P
light: B9 light
notes: as for B9

biological target: T1, human FcγRIIb extracellular domain, …; test: SPR 25C; FcgR bound per captured antibody, relative to parent B3

Binder	Binding to human FcgRs (parent B3 = 100)
B1	156
B2	108
B3	112
B4	42
B5	124
B6	114
B7	107
B8	283

biological target: T2, human FcγRIIaH extracellular domain, …; test: as above

Binder	Binding to human FcgRs (parent B3 = 100)
B1	128
B2	82
B3	63
B4	27
B5	99
B6	99
B7	79
B8	176

Biological target: T3, human FcγRIIaR extracellular domain, …
Test: as above

Binder	Binding to human FcgRs (parent B3 = 100)
B1	148
B2	75
B3	3
B4	3
B5	80
B6	71
B7	71
B8	125

Biological target: T4, cynomolgus monkey FcγRIIa2 …
Test: SPR (Biacore), antibody captured, FcgR analyte
Protocol: (§1) The kinetic analysis of interactions between these antibodies and FcγR was carried out using BIACORE® T200 or BIACORE® 4000 (GE Healthcare). HBS-EP+ (GE Healthcare) was used as the running buffer, and the measurement temperature was set to 25° C. A chip produced by immobilizing Protein A. Protein A/G or mouse anti-human IgG kappa light chain (BD Biosciences) onto a Series S Sensor Chip CM4 or CM5 (GE Healthcare) by the amine-coupling method was used. […] After the measurement, the antibody captured on the chip was washed off by allowing reaction with 10 mM glycine-HCl, pH1.5 and 25 mM NaOH so that the chip was regenerated and used repeatedly. The sensorgrams obtained as measurement results were analyzed by the 1:1 Langmuir binding model using the BIACORE® Evaluation Software to calculate the binding rate constant ka (L/mol/s) and dissociation rate constant kd (l/s), and the dissociation constant KD (mol/L) was calculated from these values. […] Regarding such interactions, KD values were calculated using the following 1:1 binding model described in BIACORE® T100 Software Handbook BR1006-48 Edition AE.
(§2) The behavior of interacting molecules according to the 1:1 binding model on BIACORE® can be described by Equation 1: Req=C·R max/(KD+C)+RI, wherein, Req is a plot of steady-state binding levels to analyte concentration. C is concentration, RI is bulk refractive index contribution in the sample, and Rmax is analyte binding capacity of the surface. When this equation is rearranged, KD can be expressed as Equation 2: KD=C·Rmax/(Req−RI)−C. KD can be calculated by substituting the values of Rmax, RI, and C into Equation 1 or Equation 2. From the current measurement conditions, RI=0, C=2 μmol/L can be used.

Binder	Kd [nM]
B9	350
B10	1400
B11	1500
B12	2000

Biological target: T5, cynomolgus monkey FcγRIIIaS …
Test: SPR (Biacore), antibody captured, FcgR analyte
Protocol: as §1, §2

Binder	Kd [µM]
B9	2.7
B10	5.7
B11	4.4
B12	4.1

Biological target: T6, cynomolgus monkey FcγRIIb extracellular …
Test: SPR (Biacore), antibody captured, FcgR analyte
Protocol: as §1, §2

Binder	Kd [nM]
B9	240
B10	430
B11	1100
B12	1100

Biological target: T7, cynomolgus monkey FcγRIIa3 …
Test: SPR (Biacore), antibody captured, FcgR analyte
Protocol: as §1, §2

Binder	Kd [µM]
B9	1.4
B10	39
B11	5
B12	12

biological target: T8, human FcγRIIb extracellular domain, …; test: SPR (Biacore), antibody captured, FcgR analyte
Protocol: as §1, §2

Binder	Kd [nM]
B9	420
B10	1100
B11	1400
B12	1900

Biological target: T9, cynomolgus monkey FcγRIIa1 …
Test: SPR (Biacore), antibody captured, FcgR analyte
Protocol: as §1, §2

Binder	Kd [µM]
B9	0.44
B10	14
B11	1.7
B12	19

biological target: T12, human FcγRIIIaV extracellular domain, C-terminal His-tag (human, UniProt P08637 17-208); test: SPR (Biacore), antibody captured, FcgR analyte
T12 construct: also called human FcgRIIIaV; FcgRIIIaV
T12 sequence (P08637 17-208 F176V): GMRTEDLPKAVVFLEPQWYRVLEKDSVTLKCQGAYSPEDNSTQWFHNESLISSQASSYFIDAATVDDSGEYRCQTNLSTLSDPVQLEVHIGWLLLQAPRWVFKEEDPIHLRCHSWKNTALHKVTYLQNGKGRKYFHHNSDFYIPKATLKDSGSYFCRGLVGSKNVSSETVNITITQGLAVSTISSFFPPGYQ
Protocol: as §1, §2

Binder	Kd [µM]
B9	8.9
B10	24
B11	15
B12	15

biological target: T10, human FcγRIIaH extracellular domain, …; test: SPR (Biacore), antibody captured, FcgR analyte
Protocol: as §1, §2

Binder	Kd [nM]
B9	580
B10	910
B11	1700
B12	11000

Biological target: T11, human FcγRIIaR extracellular domain, …
Test: SPR (Biacore), antibody captured, FcgR analyte
Protocol: as §1, §2

Binder	Kd [nM]
B9	800
B10	1900
B11	27000
B12	2800
